Experimental data reported in the nanobody polyreactivity screen of Harvey et al. (2022).

Test: yeast display, Sf9 membrane polyspecificity reagent, FACS + sequencing; frameworks hold sequencing errors
Summary of the method: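 After 36–48 hours of galactose induction, yeast (Saccharomyces cerevisiae BJ5465) displaying a synthetic nanobody library were stained at 4 °C for 1 hour with 10% biotinylated, detergent-solubilized Sf9 membrane reagent. Streptavidin microbeads enriched the stained cells before FACS sorting into low and high (top ~1%) gates on anti-HA and streptavidin fluorescence. Each clone's polyreactivity label reflects its gate of origin.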

| Sequence | polyreactivity (PSR sort gate) |
| --- | --- |
| QVQLVESGGGLVQAGGSLRLSCAASGSTMRFYAMGWYRQAPGKERELVAAISSSGSSTYYADSVKGRFTISRDNAKNTVYLQMNSLKPEDTAVYYCSGYGYWGQGTQLTVSS | high polyreactivity |
| QVQLVESGGGLVQAGGSLRLSCAASGSTQFGYAIGWYRQAPGKEREFVAAITSGGNTYYADSVKGRFTISLDNAKYTVYLQMNSLKPEDTAVFYCNKRYRSFAARLRGYDYWGQGTQVTVSS | high polyreactivity |
| QVQLVESGGGLVQAGGSLRLSCAASGSTQKYAMGWYRQAPGKERELVAAIRRTGGSTYYADSVKGRFTISRDNAKNTVYLQMNSLKPEDTAVYYCAADPYNYYVSGYDYWGQVTQVTVSS | low polyreactivity |
| QVQLVESGGGLVQAGGSLRLSCAASGSTQTVNVMGWYRQAPGKEREFVAAINDSGSTYYADSVKGRFTISRDNAKNTVYLQMNSLKPEDTAVYYCATYYWLGLSLYDYWGQGTQVTVSS | low polyreactivity |
| QVQLVESGGGLVQAGGSLRLSCAASGSTRRYYAMGWYRQAPGKERELVAAITRLGSTNYADSVKGRFTISRDNAKNTVYLQMNSLKPEDTAVYYCNTRWRYRPYRYRGDGGDYWAQGTQVTVSS | high polyreactivity |
| QVQLVESGGGLVQAGGSLRLSCAASGSTSAPNAMGWYRQAPGKERELVAAISWTGGSTSYADSVKGRFTISRDNAKNTVYLQMNSLKPPDTAVYYCAKRSYGLTRAYSAGNYWGQGTQVTVSS | low polyreactivity |
| QVQLVESGGGLVQAGGSLRLSCAASGSTSASYAMGWYRKAPGKERELVAAISGRGTTTYYADSVKGRFTISRDIAKNSVYLQMNSLKPEDTAVYYCAVYRRGGVEAFLYWGQGTQVTVSS | high polyreactivity |
| QVQLVESGGGLVQAGGSLRLSCAASGSTSDINAMGWYRQAPGKERELVAAITSRSGSTYYADSVKGRFTISRDNAKNTVYLQMNSLKPEDTAVYYCAAEYVRFYWYTSDYWGQGTQVTVSS | low polyreactivity |
| QVQLVESGGGLVQAGGSLRLSCAASGSTSDLYAMGWYRQAPGKERELVAAITWSGDSTYYADSVKGRFTISRDNAKNTVYLQMNSLKPEDTAVYYCNAEYYDYFDYESDYWGQGTQVTVSS | low polyreactivity |
| QVQLVESGGGLVQAGGSLRLSCAASGSTSDTNVMGWYRQPPAKERELVAAISNDDDRTYYADSVKGRFTSSRDNAKNTVYLQMNSVKPEDTAVYYCATADDYPGDDYLEGGYWGQGTQVTVSS | low polyreactivity |
| QVQLVESGGGLVQAGGSLRLSCAASGSTSGSYAMGWYRQAPGKERELVATISWSGGRTYYADSVKGRFTISRDNAKNTVYLQMNSLKPEDTAVYYCAARRYAFRYYGYDYWGQGTQVTVSS | high polyreactivity |
| QVQLVESGGGLVQAGGSLRLSCAASGSTSLYNMGWSRQAPGKERELVAAIDSGSTNYADSVKGRFTISRDNAKNTVYLQMNSLKPEDTAVYYCAADGTNIGVYDRASYRDDYWGQGTQVTVSS | low polyreactivity |
| QVQLVESGGGLVQAGGSLRLSCAASGSTSNTMTWDGIDRRLGKKGSWLPPITVSGGGTYYADSVKGRFTISRDNANNTVYLQMNSLKPEDTAVYYCATEYELAIYGDDYWGQGTQVTVSS | low polyreactivity |
| QVQLVESGGGLVQAGGSLRLSCAASGSTSPINAMRWYRQAPGKERELVAVISSSGGRTYYADSVKGRFTISRDNAKNTVYLQMNSLKPEDTAVYYFDKRFSRRQPDYDYWGQGTQVTVSS | high polyreactivity |
| QVQLVESGGGLVQAGGSLRLSCAASGSTSQTYAMGWYRQAPGKERELVASMTRSGVRTYYADSVKGRFTISRDNAKYTVYLQMNSLKPEDTAVYYCAAKYSYGFYRTGYYWGQGTQVTVSS | high polyreactivity |
| QVQLVESGGGLVQAGGSLRLSCAASGSTSQYYAMGWYRQAPGKERELVAVISWSGGSTYYADSVKARFTISRDNAKNTVYLEMNSLKPEDTAVYYCAARYRRRVIATRDYWGQGTQVTVSS | high polyreactivity |
| QVQLVESGGGLVQAGGSLRLSCAASGSTSSLYTMGWYKQAPGKERELVAAITVSGSRTYYADSVKGRFTISRDNAKNTVYLQMNSLKPEDTAVYYCNAYPYYLVRNMDSWGQGTQVTVSS | high polyreactivity |
| QVQLVESGGGLVQAGGSLRLSCAASGSTSVPYTMGWYRQAPGKERELVAAISSSGGTTNYADSVKGRFTISRDNAKNTVYLQMNSLKPEDTAVYYCAAEYYQWVAYSWNEMYYWGQGTQVTVSS | low polyreactivity |
| QVQLVESGGGLVQAGGSLRLSCAASGSTSVQYAKGWYRQAPGKERELVAAIDRSGGSTSYADSVKGRFTISRDNAKNTVYLQMNSLKPEDTAVYYCNADPVRSTYSYDYWGLGTQVTVSS | low polyreactivity |
| QVQLVESGGGLVQAGGSLRLSCAASGSTSVQYAMGWYRQAPGKERELVAAIDRSGGSTSYADSVKGRFTISRDNAKNTVYLQMNSLKPEDTAVYYCNADPVRSTYSYDYWGQGTQVTVSS | low polyreactivity |
| QVQLVESGGGLVQAGGSLRLSCAASGSTSVQYAMGWYRQAPGKERELVAAIDRSGGSTSYADSVKGRFTISRYNAKNTVYLQMNSLKPEDTAVYYCNADPVRSTYSYDYWGQGTQVTVSS | low polyreactivity |
| QVQLVESGGGLVQAGGSLRLSCAASGSTSVVNAMGWYRQAPGKERELVATITRSAGRTYYADSVKGRFTISRDNAKNTVYLQMNSLKPEDTAVSYCAKDTDISTHHSKGRAKSRYDYWGQGTQVTVSS | low polyreactivity |

| Sequence | polyreactivity (PSR sort gate) |
| --- | --- |
| QVQLVESGGGLVQAGGSLRLSCAASGSTSWSYAMGWYRQAPGKERELVAAITRTGSTNYADSVKGRFTISRDNAKNTVYLQMNSLKPEDTAVYYCVYATLRYDYWGQGTQVTVSS | low polyreactivity |
| QVQLVESGGGLVQAGGSLRLSCAASGSTSYNAMGWYIQAPGKERELVAAISDGGGSTYYADSVKGRFTISRDNAKNTVYLQMNSLKPEDTAVYYCAADTITGDGYWGQGTQVTVSS | low polyreactivity |
| QVQLVESGGGLVQAGGSLRLSCAASGSTSYVYAMGWYRQAPGKERELVAAISGSGGRTYYADSVKGRFTISRDNAKNTVYLQMNSLKPEDTAVYYCAADYIFRRYPVGGIYDYDYWGQGTQVTVSS | high polyreactivity |
| QVQLVESGGGLVQAGGSLRLSCAASGSTSYWYAMGWYRQAPGKESELVATIRSRGGSTSYADSVKGRFTIARDNAKNTVYLQMNSLKPEDTAVNYCNTRKLYQVDYDYLGQGTQVTVSS | high polyreactivity |
| QVQLVESGGGLVQAGGSLRLSCAASGSTVDRYAMGGYRQAPGKERELVAAITSSGGSTYDADSVKGRFTISRDNAKNTVYVQMNSLKPEDTAVYYCNALITYSTDYWGQGTQVTVSS | low polyreactivity |
| QVQLVESGGGLVQAGGSLRLSCAASGSTVGHYAMGWYRQAPGKERELVAAISVSGGSTYYADSVKGRFTISRDHAKNTVYLQMNSLKPEDTAVYYCAREYAHLSFLSTSSDYWGQGTQVTVSS | low polyreactivity |
| QVQLVESGGGLVQAGGSLRLSCAASGSTVKTYAMGWYRQAPGKERELVAAISWSGGSTYYADSVKGRFTISRDNAKNTVYLQMNSLKPEDTAVYYCNAGWGYPSPWFIGEYWGQGTQVTVSS | low polyreactivity |
| QVQLVESGGGLVQAGGSLRLSCAASGSTVYYNAMGWYRQAPGKERELVAAISRSGGRTYYADSVKGRFTISRDNAKNTVYLQMNSLKPEDTAVYYCAADAPGHEYYYWGQGTQVTVSS | high polyreactivity |
| QVQLVESGGGLVQAGGSLRLSCAASGSTYIANPMGWYRQAPGKEREFLATISRRGGSTYYADSVKGRFTISRDNAKNTVYLQMNSLKPEDTAVYYCAARPLTYIRFRYYYWGQGTQVTVSS | high polyreactivity |
| QVQLVESGGGLVQAGGSLRLSCAASGSTYIDYAMGWYRQAPGKERELVASIRYSGGGTYYADSVKGRFTISRDNAKNTVYFQMNSLKPEDTAVYYCAKDTHLLNEHSGTSREYDYWGQGTQVTVSS | low polyreactivity |
| QVQLVESGGGLVQAGGSLRLSCAASGSTYPGNAMGWYRQAPGNERELVALINDGADTNYADSVKGRFTISRDNAKNTVYLQMNSLKPEDTAVYYCAKRSLYPTYDYWGQGTQVTVSS | low polyreactivity |
| QVQLVESGGGLVQAGGSLRLSCAASGSTYQGYAMGWYRQAPGKERELVAAISGRSGSTYYADSVKGRFTISRDNAKNTVYLEMNSLKQEDTAVYYFNAVTGVNPSLDYWGQGTQVTVSS | high polyreactivity |
| QVQLVESGGGLVQAGGSLRLSCAASGSTYRYVMGWYRQAPGKERELVAAITYTGGSTYYADSVKGRFTISRDNAKNTVYLQMNSLKPEDTAVYYCAASRYYTFDYWGQGTQVTVSS | high polyreactivity |
| QVQLVESGGGLVQAGGSLRLSCAASGSTYSYYAMGWYRQAPGKERELVAAITSSGSSTYYADSVKARFTISRDNAKNTVYLPMISLKPEDPAVYYCAAGRYRYTYRYFTAWYGYWGQGTQVTVSS | high polyreactivity |
| QVQLVESGGGLVQAGGSLRLSCAASGSTYYANAMGWYRQAPGKEREFVATISSSDGSTYYADSVKGRFTISRDNAMNTVYLQMYSLKPEDTAVYYCNAADYPEAHSTYYYWGQGTLVTVSS | low polyreactivity |
| QVQLVESGGGLVQAGGSLRLSCAASGSTYYNAMGWSRQAPGNERELVAAIRFRSGSTYYADSVKGRFTISRDNAKNTVYLQMNSLTPEDTAVYYCAADNKRSWRYAYNYWGQGTQVTVSS | high polyreactivity |
| QVQLVESGGGLVQAGGSLRLSCAASGSTYYNAMGWYRQAPGKERELVAAIRFRSGSTYYADSVKGRFTISRDNAKNTVYLQMNSLKPEDTAVYYCAADNKRSWRYAYNYWGQGTQVTVSS | high polyreactivity |
| QVQLVESGGGLVQAGGSLRLSCAASGTFFGYAMGWYRQAPGKERELVAAITSGGSTYYADSVKGRFTISRDNAKNTVYLQMNSLKPEVTAVYYCARVYSRWSYRYDYWGQGTQVTVSS | low polyreactivity |
| QVQLVESGGGLVQAGGSLRLSCAASGTFFIYAMGWYRQAPGKERELVATISSGGSTNYADSVKGRFTISRDNAKNTVYLQMNSLKPEDTAVYYCAAEWLYPHDGGYPRPMDYWGQGTQVTVSS | low polyreactivity |
| QVQLVESGGGLVQAGGSLRLSCAASGTFFIYAMGWYRQAPGKERELVATISTGGSTNYADSVKGRFTISRDNAKNTVYLQMNSLKPEDTAVYYFAAEWLYPHDGGYPRPMDYWGQGTQVTVSS | low polyreactivity |
| QVQLVESGGGLVQAGGSLRLSCAASGTFGVYAMGWYRQAPGKERELVAVITDSGGTNYADSVKGRFTISRDNAKNTVYLQMNSLKPEDTAVYYCNTDAGDYYGENYWGQGTQVTVSS | low polyreactivity |
